Laboratory results: the nanobody polyreactivity screen of Harvey et al. (2022)

Assay: yeast display, Sf9 membrane polyspecificity reagent, FACS + sequencing; frameworks hold sequencing errors
In short: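 Synthetic nanobody libraries on Saccharomyces cerevisiae BJ5465 were galactose-induced for 36–48 hours, stained 1 hour at 4 °C with 10% biotinylated, detergent-solubilized Sf9 membrane reagent and enriched on streptavidin microbeads. FACS then separated cells into low and high (top ~1%) gates by anti-HA (expression) and streptavidin (reagent binding) fluorescence. Genes were colony-PCR amplified, MiSeq 2 × 250 sequenced and CDR-length filtered. A clone's polyreactivity label is that of its gate of origin.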

Q: For “QVQLVESGVGLVQAGGSLRLSCAASGITFYGYTMGWYRQAPGKEMELVASIRWRGGNTYYADSVKGRFTISRDNAKITVYLQMNSLKPEDTAVYYCNARARVYYYKEIVAYDYWGQGTQVTVSS”, which “polyreactivity (PSR sort gate)” value is on record?
A: high polyreactivity

Q: Which “polyreactivity (PSR sort gate)” value does the source give for “QVQLVESGGGLVQAGGSLRLSCAASGNIFYGYAMGWYRQAPGKERELVAAISRAGRTYYADSVKGRFTISRDNAKNTVYLQMNSLKPEDTAVYYCAADFYYASYVRYNYWGQGTQVTVSS” here?
A: low polyreactivity

Q: With “QVQLVESGGGLVQAGGSLRLSCAASGLIFDDYAMGWYRQAPGKERELVAAISWSDGTTYYADSVKGRFTISRDNAKNTVYLQMNSLKTEDTAVYYCAAEEVSGWEYDYWGQGTQVTVSS” as the sequence, how does the “polyreactivity (PSR sort gate)” value read?
A: high polyreactivity

Q: For “QVQLGESGGGLVQAGGSLRLSCAASGRIFQHNTMGWYRQAPGKEREFVAAIRRSGGSTYYADSVKGRFTISRDNAKNTVYLQMNSLKPEDTAVYYCAARDYPTGTRRWGGGDSWGQGTQVTLSS”, which “polyreactivity (PSR sort gate)” value is on record?
A: low polyreactivity

Q: With “QVQLVESGGGLDQAGGSLRLSCAASGNIFPAYAMGWYRQAPGKERELVAAISKSGGRTYYADSVKGRFTISRDNAKKTVYLVMNSLKPEDSAVYFCAARDRRYQWTSWYDYWGQGTQVTVSS” as the sequence, how does the “polyreactivity (PSR sort gate)” value read?
A: high polyreactivity

Q: For “QVQLLESGGGLVQAGGSLRLSCAASGITFQLYAMGWYRQAPGKEREFVAAINGRSGRTYYADSVKGRFTISRDNAKNTVYLHMNSLKPEDTAVYYCAKTSNGYGSGLPMYYWGQGTQVTVSS”, which “polyreactivity (PSR sort gate)” value is on record?
A: high polyreactivity

Q: Which “polyreactivity (PSR sort gate)” value does the source give for “QVQLVESGGGLVQAGGSVRLSCAASGSIFTGYAMGWYRQAPGKERELVAAISRSSGSTYYADSVKGRFTISRDNAKNTVYLQMNSLKPEDTAVYYCNAYSKYRSGRLYWMGYWGQGTQVTVSS” here?
A: high polyreactivity

Q: With “QVQLVESGGGLVQAGGSLRLSCAASGSIFYYNTMGWYRQAPGKERELVAAITSTGRTNYADSVKGRFTISRDNAKNTVYLQINSLKPVDTAVYYCAKRRFGDGDYWGQGTQVTVSS” as the sequence, how does the “polyreactivity (PSR sort gate)” value read?
A: low polyreactivity

Q: For “QVQLVESGGGLVQAGGSLRLSCAASGRTFRWYAMGWYRQAPGKERELVAAISSSGTRTYYADSVKGRFTISRDNAKNTVYLQMNSLKPEDTAVYYCAATWRVGYDYWGQGTQVTVSS”, which “polyreactivity (PSR sort gate)” value is on record?
A: high polyreactivity

Q: Which “polyreactivity (PSR sort gate)” value does the source give for “QVQLVESGGGLVQAGGSLRLSCAASGRIFTGYAMGWYRQAPGKERELVAAINSGGRTNYADSVKGRFTISRDNAKNTVYLQMNSLKPEDTAVYYCAARYTNYGGYYWGQGTQVTVSS” here?
A: high polyreactivity

Q: With “QVQLVESGGGLVQAGGSLRLSCDASGLIFWRNAMGWYRQAPGKERELVAGITSGGSTYYADSVKGRFTISRDNAKNTVYLQMNCLKPEDTAVYYCAKSTWQSYYYPRGSVYWGQGTQVTVSS” as the sequence, how does the “polyreactivity (PSR sort gate)” value read?
A: high polyreactivity

Q: With “QVQLVESGGGLVQAGGSLRLSCAASGFTFRYYAMGWYRQAPGKERELVAAITGSGVNTYYADSVKGRFTISRDNAKNTVYLQMNSLKPEDTAVYYCAAESESDPLFERYYWGQGTQVTVSS” as the sequence, how does the “polyreactivity (PSR sort gate)” value read?
A: high polyreactivity

Q: With “QVQLVESGGGLVQAGGSLRLSCAASGSIFGRYVMGWYRQAPGKERELVAAISGSGTSTYYADSVKGRFTISRDNAKNTVFLQMNSLKPEDTAVYYCAARDIKSSHDYDYWGQGTQVTVSS” as the sequence, how does the “polyreactivity (PSR sort gate)” value read?
A: low polyreactivity

Q: With “QVQLVESGGGLVQAGGSLRLSCAASGGIFWYNAMGWYRQAPGKERELVADISSSGITYYADSVKGRFTISRDNAKNTVYLQMKSLKPEDTAVYYCAADSTTRPGLRVYDDYDYWGQGTQVTVSS” as the sequence, how does the “polyreactivity (PSR sort gate)” value read?
A: low polyreactivity

Q: Which “polyreactivity (PSR sort gate)” value does the source give for “QVQLVESGGGLVQAGGSLRLSCAASGRIFLVNAMGWYRQAPGKEREFVAAITDNTGSTYYADSVKGRFTISRDNAKNTVYLQMNSLKPEDTAVYYCAKQRGNKRIGYDSWGQGTQVTVSS” here?
A: low polyreactivity

Q: Which “polyreactivity (PSR sort gate)” value does the source give for “QVQLVESGGGLVQAGGSLRLTCAASGFIFYYYTIGWYRQAPGKERELVAAIRTDGNTYYADSVKGRFTISRDNAKNTVYFQMNSLKPEDTAVYYCAAKIPRPYAMDYWGQGTQVTVSS” here?
A: low polyreactivity

Q: For “QDQLVESGGGLVQEGGSLRLSCAAYGTIFQIYAMGWYIQAPGKERELVAAINSGGISKYADSVKGRFTISRDNAKNSVYLQMNSLTPADTAVYYCAASVDTGRYSVYYHGYTYDYWGQGTQVTVSS”, which “polyreactivity (PSR sort gate)” value is on record?
A: low polyreactivity

Q: With “QVQLVESGGGLVQAGGSLRLSCAASGRIFRFNAMGWYRQAPGKERELVAAITGSGGTTFYADSVKGRFTISRDNAKNTVYLQMNSLKPEDTAVYYCNTLGNWRPVYNQPRYEYWGQGTQVTVSS” as the sequence, how does the “polyreactivity (PSR sort gate)” value read?
A: high polyreactivity

Q: Which “polyreactivity (PSR sort gate)” value does the source give for “QVQLVESGGGLVQEGDSLRLSCAASGIIFLWYTLGLYRPAPGKERELVATISWGGGSTYADSVKGRFTISRDNAKNTVYLQMNSLKPEDTAVYYCAADNRYFRGQAYDYWGQGTQVTVSS” here?
A: low polyreactivity

Q: Which “polyreactivity (PSR sort gate)” value does the source give for “QVQLVESGGGLVQAGGSLRLSCAASGRTLSLYAMGWYRQAPGKEMELVANISNSGGSTDYADSVKGRFTISRDNAKNTVYLQMNSLKPEDTAVYYCAADANSWFTSYQVYGSEFDYWGQGTQVTVSS” here?
A: low polyreactivity

Q: Which “polyreactivity (PSR sort gate)” value does the source give for “QVQLVESRGGLVQAGGSLRLSCAASGSNFTLYAMGWYRQAPGKERELGATITISGGGTYYADSVKGRFTISRDNAKNTVYLQMNSLKPEDTAVYYCAVKSIVRRKGYTYYRYDYWGQGTQVTVSS” here?
A: high polyreactivity

Q: With “QVQLVESGGGLVQAGGSLRLSCAASGRTFKDYAMGWYRQAPGKERELVAAISWSGGDTYYADSVKGRFTISRDNAKNTVYLQMNRLKPEDTAVYYCNADPSGVFFYSLEFDYWGQGTQVTVSS” as the sequence, how does the “polyreactivity (PSR sort gate)” value read?
A: low polyreactivity

Q: Which “polyreactivity (PSR sort gate)” value does the source give for “QVQLVESGGGLVQEGGSLRLTCAASGITFIYYAMGWYRQAPGKERELVAAISTGGSTYYADSVKGRCTISRDNAMNTVYLQMISLKPEDTAVYYWNALRKSLRGGDYWGQGTQVTVSS” here?
A: high polyreactivity

Q: For “QVQLVESGGGVVQARGSLRLSCAASGSTFDVNAMGWYRQAPWKDRELVAAISWNSGTTYYADSVKGRFTISRDNAKNSVYLQMNSLKPEDTAVYYCAASYGTGRRSKYGYWGQGTQVTVSS”, which “polyreactivity (PSR sort gate)” value is on record?
A: high polyreactivity

Q: With “QVQLVESCGGLVQAGGSLRLSCAASGRTFSLYTMGWYRQAPGKERELVATIRSRGGSTYYADSVKGRFTISRDNAKNTFYLQMNSLIPEDTAVYYCATVLRGPFLGWHGGPMYHWGQGTQVTVSS” as the sequence, how does the “polyreactivity (PSR sort gate)” value read?
A: low polyreactivity

Q: With “QVQLVESGGGLVQAGCSLRLICAASGFIFRTYAMGWYRQAPGKESELVAAISRGGVRTYYADSVKGRFTISRDNAKNTVYLQMNSLKPEDTAVYYCAADDVHGIYDYWGQGTQVTVSS” as the sequence, how does the “polyreactivity (PSR sort gate)” value read?
A: high polyreactivity

Q: Which “polyreactivity (PSR sort gate)” value does the source give for “QGQLVESGGALVQAGGSLRLICAASGRTFAAYSMGWYRQAPGKERELVAAISIGGSTNYADSVKVRFTISRDNAKNSVYLQMNSLKPEDSAVYYCAAPGRRYLRARIRYEYWGQGTQLTVSS” here?
A: high polyreactivity

Q: For “QVQLVESGGGLVQAGGSLRLSCAASGRTFSYYAMGWYRQAPGKERELVAAIRRSSGTTYYADSVKGRFTISSDNAKNTVYLQMNSLKPEDTAVYYCNARSRRASIKRDYWGQGTQVTVSS”, which “polyreactivity (PSR sort gate)” value is on record?
A: high polyreactivity

Q: Which “polyreactivity (PSR sort gate)” value does the source give for “QVQHVESCGGLDQAGGSLRLSCAASGRTFKYYTMGWYRQAPGKQREFVAAISTGGSTHYADSVKGRFTISRDNAKNTVYLQMNSLKPEVTAVSYCAAGCVLWVRDPQGRASYYWGQGTHVTVSS” here?
A: high polyreactivity

Q: For “QVQLVESGGGLVQAGGSLRLSCAASGYTFSSYTMGWYRQAPRKERELVAAITYSGGSTYYADSVKGRFTISRDNAKNTVYLQMNSLKPEDTAVYYCNARGRYAYAYWGQGTQVTVSS”, which “polyreactivity (PSR sort gate)” value is on record?
A: low polyreactivity

Q: For “QVQLVESGGGLVQAGGSLRLICAASGIIFGIYDMGWYRQAPGKERELVAAIRRSGGSTYYADSVKGRFTISRDNAKNTVYLQMNSLKPEDTAVYYCATDAWYYSQTNHDYWGQGTQVTVSS”, which “polyreactivity (PSR sort gate)” value is on record?
A: low polyreactivity

Q: With “QVQLVESVRGLVQAGGSLLLSCAASGITITHYDMGWYRHSSGKESELVAAITSSGRTYYADSVKGRFSLSRDNAKNTVYLQMNSLKPEDTAVYYCDAEHSWFYGLLGYWGQGTQVTVSW” as the sequence, how does the “polyreactivity (PSR sort gate)” value read?
A: high polyreactivity

Q: Which “polyreactivity (PSR sort gate)” value does the source give for “QVQLVESGGGLVQAGGSLRLSCAASGRIFRGYAMAWYRQAPGKERELVAAISGRGGRTNYADSVKGRFTISRDNAKNTVYLQMNSLKPEDTAVYYCATVPYTASRYEYWGQGTQVTVSS” here?
A: high polyreactivity

Q: With “QVQLVESGGGLVQAGGSLRLSCAASGRTLHSYAMGWYRQAPGKERELVAAISGGASTYADSVKGRFTISRDNAMITVYFQMNSLKPEDTAVYYCAADDDPVPTYEYDVWGQGTQVTVSS” as the sequence, how does the “polyreactivity (PSR sort gate)” value read?
A: low polyreactivity

Q: For “QVQLVESGGGLVQAGGSLRLICAASVSTFRKYAMGRYRQAPGKEREFVAAISSSGGRTYYADSVKGRFTISRDNAKNTVYLQMNSLKPEDTAVYYCNAYFRYSYDYWGQGTQVTVSS”, which “polyreactivity (PSR sort gate)” value is on record?
A: high polyreactivity

Q: With “QVQLVESGGGLVQAGGSLRLSCAASGNIFLRYAMGWYRQAPGKERELVASITRSGASTYYAVSVKGRFTISRDNAKNTVYLQMNSLKPEDTAVYYCAASYYFRYYRGGYWGQGTQVTVSS” as the sequence, how does the “polyreactivity (PSR sort gate)” value read?
A: high polyreactivity

Q: Which “polyreactivity (PSR sort gate)” value does the source give for “QVQLVESGGGLVQAGGSLRLSCAASGSILLRYAMGWYRQAPGKERELVAAISYDGGGTYYADSVKGRFTISRDNAKNTVYLQMNSLKPEDTAVYYCAADGYSSSGTAYDYWGQGTQVTVSS” here?
A: low polyreactivity

Q: For “QVQLEESGGRLVQAGGSLRLSCAASGRTFGPYGMGWYRQAPGKESELDAAINGNGDSTYYADSVKGRFTISRDNAKNTVYLQMNSLKPEDTAVYYCASEGWPDYTSRLYDYWGQGTQVTVSS”, which “polyreactivity (PSR sort gate)” value is on record?
A: low polyreactivity

Q: With “QVQLVESGGGLVQAGGSLRLSCAASGRTISSYAMGWSRQAPGKERELVAAISRSGGNTYYPDSVKGRFTISRDHAKNTVYLQMNSLKPEDTAVYYCNARGRTGFQADKFGYWGQGTQVTVSS” as the sequence, how does the “polyreactivity (PSR sort gate)” value read?
A: high polyreactivity

Q: Which “polyreactivity (PSR sort gate)” value does the source give for “QVQHVESGGGLVQEGGSLRLSCAASGRIFRTNAMVWYRQAPGKERELVAAITRDGTTNYADSVKGRFTISRDNAKNTVYLQMNSLIPEDTAVYYCNARYRRSPIKFTYVRYVYEYDYWGQGTQVTVSS” here?
A: low polyreactivity

Q: Which “polyreactivity (PSR sort gate)” value does the source give for “QVQLVESGGGLVQAGGSLRLSCAASGYIFDSNVMGWYRQAPGKERELVARIRWSGGSTYYADSVKGRFTISRDNAKNTVYLQMNSLKPEDTAVYYCNVVSYYIAGGWYEGDYWGQGTQVTVSS” here?
A: low polyreactivity

Q: Which “polyreactivity (PSR sort gate)” value does the source give for “QFQLVESGVGLVQAGGSLRLSCAASGFTFWYYAMGWYRQAPGKERELVARITSRAADTYADSVKGRFTISRDNAKNTVYLQMNSLKPEDTAVYYCNAEFGRARDDDYSGQGTQVTVSS” here?
A: low polyreactivity

Q: For “QVQLVESGGGLVQEGGSLRLSCAASGLTFTGNAMGGYRQAPGKEREFVAAIRWSAGSTYYADSVKGRFTISRDNAKNTVYLQMNSLKPEDTAVYYCYAALIVSGHNPNDYWGQGTQVTGSS”, which “polyreactivity (PSR sort gate)” value is on record?
A: low polyreactivity
